Data on two molecules can be found in article PMC5580658.

Data set [1] addresses T1, Hfq (Escherichia coli, UniProt P0A6X3 1-102). The experiment in a line: EMSA.
Data set [2] addresses T1, Hfq. The experiment in a line: EMSA. This is another data set of the same source. In general terms: Mobility shift assays separate free from complexed probe on a gel.

T1 sequence (P0A6X3 whole entry): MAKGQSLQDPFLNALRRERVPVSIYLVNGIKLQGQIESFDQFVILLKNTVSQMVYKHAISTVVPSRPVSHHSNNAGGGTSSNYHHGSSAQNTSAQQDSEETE

B1: mutS leader ARN3* (structured_RNA)
RNA: GGUGCGCCUUAUGUGAUUACAACGAAAAUAAAAACCAUCACACCCCAUUUAAUAUCAGGGAACCGGACAUAACCCCAUGAGUGCCAUCGAGAAUUUCGACGCCCAU
On to B1, for which, in data set [1], the Kd is roughly 19 nM.

B2: mutS leader ARN1* (structured_RNA)
RNA: GGUGCGCCUUAUGUGAUUACAACGAACGUAUAUACCAUCACACCCCAUUUAAUAUCAGGGAACCGGACAUAACCCCAUGAGUGCAAUAGAAAAUUUCGACGCCCAU
Turning to B2, the binding signal in data set [2] was ~3 fold lower affinity than WT.

By Kd is commonly meant the free concentration of one partner at which half of the binding sites on the other are occupied at equilibrium, for simple one-to-one binding.
